T1: Bcl-w
T1 chain: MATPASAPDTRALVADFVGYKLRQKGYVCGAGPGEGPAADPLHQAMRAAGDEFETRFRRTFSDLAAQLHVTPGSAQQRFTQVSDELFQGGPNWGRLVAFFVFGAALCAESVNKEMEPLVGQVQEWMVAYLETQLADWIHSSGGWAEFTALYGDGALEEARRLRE

B1: Bad BH3 L2A, phage-displayed (peptide)
peptide: NAWAAQRYGRELRRMSDEFVDSFKKG
notes: M13 phage display: FLAG-26mer-GGGT-g3(249-406)
B2: Bad BH3 W3A, phage-displayed (peptide)
peptide: NLAAAQRYGRELRRMSDEFVDSFKKG
notes: as for B1
B3: Bad BH3 M15A, phage-displayed (peptide)
peptide: NLWAAQRYGRELRRASDEFVDSFKKG
notes: as for B1
B4: Bad BH3 F23A, phage-displayed (peptide)
peptide: NLWAAQRYGRELRRMSDEFVDSAKKG
notes: as for B1
B5: Bad BH3 D21A, phage-displayed (peptide)
peptide: NLWAAQRYGRELRRMSDEFVASFKKG
notes: as for B1
B6: Bad BH3 A4E, phage-displayed (peptide)
peptide: NLWEAQRYGRELRRMSDEFVDSFKKG
notes: as for B1
B7: Bad BH3 Q6A, phage-displayed (peptide)
peptide: NLWAAARYGRELRRMSDEFVDSFKKG
notes: as for B1
B8: Bad BH3 E18A, phage-displayed (peptide)
peptide: NLWAAQRYGRELRRMSDAFVDSFKKG
notes: as for B1
B9: Bad BH3 Y8A, phage-displayed (peptide)
peptide: NLWAAQRAGRELRRMSDEFVDSFKKG
notes: as for B1
B10: Bad BH3 wild type, phage-displayed (peptide)
peptide: NLWAAQRYGRELRRMSDEFVDSFKKG
notes: M13 phage display: FLAG-26mer-GGGT-g3(249-406); also called wtBad
B11: Bad BH3 R14A, phage-displayed (peptide)
peptide: NLWAAQRYGRELRAMSDEFVDSFKKG
notes: as for B1
B12: Bad BH3 N1A, phage-displayed (peptide)
peptide: ALWAAQRYGRELRRMSDEFVDSFKKG
notes: as for B1
B13: Bad BH3 K25A, phage-displayed (peptide)
peptide: NLWAAQRYGRELRRMSDEFVDSFKAG
notes: as for B1
B14: Bad BH3 A5E, phage-displayed (peptide)
peptide: NLWAEQRYGRELRRMSDEFVDSFKKG
notes: as for B1
B15: Bad BH3 R7A, phage-displayed (peptide)
peptide: NLWAAQAYGRELRRMSDEFVDSFKKG
notes: as for B1
B16: Bad BH3 R13A, phage-displayed (peptide)
peptide: NLWAAQRYGRELARMSDEFVDSFKKG
notes: as for B1
B17: Bad BH3 S22A, phage-displayed (peptide)
peptide: NLWAAQRYGRELRRMSDEFVDAFKKG
notes: as for B1
B18: Bad BH3 R10A, phage-displayed (peptide)
peptide: NLWAAQRYGAELRRMSDEFVDSFKKG
notes: as for B1
B19: Bad BH3 G26E, phage-displayed (peptide)
peptide: NLWAAQRYGRELRRMSDEFVDSFKKE
notes: as for B1
B20: Bad BH3 K24A, phage-displayed (peptide)
peptide: NLWAAQRYGRELRRMSDEFVDSFAKG
notes: as for B1
B21: Bad BH3 V20A, phage-displayed (peptide)
peptide: NLWAAQRYGRELRRMSDEFADSFKKG
notes: as for B1
B22: Bad BH3 D17A, phage-displayed (peptide)
peptide: NLWAAQRYGRELRRMSAEFVDSFKKG
notes: as for B1
B23: Bid BH3 wild type, phage-displayed (peptide)
peptide: QEDIIRNIARHLAQVGDSMDRSIPPG
notes: M13 phage display: FLAG-26mer-GGGT-g3(249-406); also called wtBid
B24: Bid BH3 P25A, phage-displayed (peptide)
peptide: QEDIIRNIARHLAQVGDSMDRSIPAG
notes: as for B1
B25: Bid BH3 G26E, phage-displayed (peptide)
peptide: QEDIIRNIARHLAQVGDSMDRSIPPE
notes: as for B1

For orientation: IC50 means the concentration that gives 50% inhibition.

The first assay addresses T1, Bcl-w. Nature of the assay: competition phage ELISA. (ELISA stands for enzyme-linked immunosorbent assay.)
B1 registered a Fold/wt of 1 fold and an IC50 of 35 nM.

As to B2, the Fold/wt was 1 fold and the IC50 came out at 33 nM.

B3 registered a Fold/wt of 1 fold and a half-inhibitory concentration (IC50) of 43 nM.

B4 registered a Fold/wt of 2 fold and an IC50 of 83 nM.

The molecule B5 yielded a Fold/wt of 1 fold and a half-inhibitory concentration (IC50) of 28 nM.

As for B6, the Fold/wt worked out at 1 fold and the IC50 is 46 nM.

In turn, B7 displayed a Fold/wt of 1 fold and an IC50 of 47 nM.

B8 displayed a Fold/wt of 1 fold and a 50% inhibitory concentration (IC50) of 55 nM.

B9: the Fold/wt came out at 2 fold and the half-inhibitory concentration (IC50) was 77 nM.

As for B10, the Fold/wt worked out at 1 fold and the concentration for half-maximal inhibition (IC50) is 37 nM.

B11 had a Fold/wt of 2 fold and an IC50 of 86 nM.

B12 gave a Fold/wt of 1 fold and an IC50 of 47 nM.

B13 gave a Fold/wt of 1 fold and a half-inhibitory concentration (IC50) of 46 nM.

B14 gave a Fold/wt of 4 fold and an IC50 of 152 nM.

Consider B15, for which the Fold/wt amounted to 1 fold and the IC50 was 32 nM.

With B16, the Fold/wt turned out to be 1 fold and the 50% inhibitory concentration (IC50) came out at 52 nM.

Take B17: the Fold/wt is 2 fold and the half-maximal inhibitory concentration (IC50) amounted to 77 nM.

B18 displayed a Fold/wt of 1 fold and a half-inhibitory concentration (IC50) of 41 nM.

The molecule B19 registered a Fold/wt of 1 fold and a 50% inhibitory concentration (IC50) of 37 nM.

As to B20, the Fold/wt was determined as 1 fold and the IC50 is 54 nM.

In the case of B21, the Fold/wt is 1 fold and the IC50 was determined as 38 nM.

The molecule B22 showed a Fold/wt of 3 fold and a 50% inhibitory concentration (IC50) of 128 nM.

For another assay, the target named is Bcl-2. Put plainly: competition phage ELISA.
Bcl-2, sequence (chain, as listed by the source): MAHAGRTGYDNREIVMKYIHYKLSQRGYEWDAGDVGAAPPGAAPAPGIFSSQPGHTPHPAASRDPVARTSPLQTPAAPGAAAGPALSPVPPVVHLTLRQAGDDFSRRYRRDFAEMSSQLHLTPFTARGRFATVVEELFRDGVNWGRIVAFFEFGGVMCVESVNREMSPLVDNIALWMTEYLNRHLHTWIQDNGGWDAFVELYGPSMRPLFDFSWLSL
B1: the Fold/wt worked out at 1 fold and the IC50 is 7 nM.

The molecule B2 had a Fold/wt of 1 fold and a half-maximal inhibitory concentration (IC50) of 12 nM.

As to B3, the Fold/wt worked out at 3 fold and the half-maximal inhibitory concentration (IC50) was 43 nM.

B5 returned a Fold/wt of 1 fold and a concentration for half-maximal inhibition (IC50) of 17 nM.

B6 gave a Fold/wt of 1 fold and an IC50 of 10 nM.

As to B7, the Fold/wt came to 1 fold and the half-maximal inhibitory concentration (IC50) was determined as 18 nM.

In turn, B8 had a Fold/wt of 2 fold and an IC50 of 29 nM.

The molecule B9 displayed a Fold/wt of 1 fold and an IC50 of 19 nM.

On to B10, for which the Fold/wt amounted to 1 fold and the IC50 is 13 nM.

B11 registered a Fold/wt of 5 fold and an IC50 of 57 nM.

In the case of B12, the Fold/wt stood at 1 fold and the concentration for half-maximal inhibition (IC50) amounted to 10 nM.

B13 showed a Fold/wt of 1 fold and an IC50 of 13 nM.

Turning to B14, the Fold/wt came to 2 fold and the IC50 turned out to be 26 nM.

Regarding B15, the Fold/wt came to 1 fold and the concentration for half-maximal inhibition (IC50) was 14 nM.

As for B16, the Fold/wt stood at 1 fold and the IC50 turned out to be 19 nM.

B17 yielded a Fold/wt of 1 fold and an IC50 of 19 nM.

For the molecule B18, the Fold/wt was 1 fold and the IC50 stood at 14 nM.

On to B19, for which the Fold/wt is 1 fold and the concentration for half-maximal inhibition (IC50) was found to be 15 nM.

Consider B20, for which the Fold/wt is 1 fold and the IC50 turned out to be 14 nM.

The molecule B21 came in with a Fold/wt of 1 fold and a concentration for half-maximal inhibition (IC50) of 13 nM.

For the next assay, the target named is T1, Bcl-w. Nature of the assay: competition phage ELISA. This is another data set of the same source.
On to B23, for which the Fold/wt was 1 fold and the IC50 worked out at 23 nM.

Regarding B24, the Fold/wt turned out to be 1 fold and the IC50 turned out to be 26 nM.

B25 yielded a Fold/wt of 1 fold and an IC50 of 25 nM.

For the origin of these results see patent US20090048164A1 (WALTER AND ELIZA HALL INSTITUTE OF MEDICAL RESEARCH, published 2009).
